Test results published in the RNAGym collection of RNA variant scans (doi:10.7554/elife.90254).

B1: LINE1-full (parent)
chain: UACGUAGGUGGUUUUCCCCUGAUAGUGCUAAGGGGGCCUGGAAGUUUGGACUGGGCAGAGCUCAACACAGCGUGGCAAAGUGGCUGUGGCUAGACUGCCUCUCUGGAUUCCUCGUCACUCAGCAGGGCAUCUCUGAGAGAAAUGCC

Variants of: B1
Assay: self-cleavage, relative activity (ratio to wild type); higher = more cleavage; in vitro, sequencing; the parent is a self-cleaving ribozyme

Variant | self-cleavage
UACGUAGGUGGUUUUCCCCUGAUAGUGCAAAGGGGGCCUGGAAGUUUGGACUGGGCAGAGCUCAAUACAGCGUGGCAAAGUGGCUGUGGCUAGACUGCCUCUCUGGAUUCCUCGUCACUCAGCAGGGCAUCUCUGAGAGAAAUGCC | 0.25
UACGUAGGUGGUUUUCCCCUGAUAGUGCAAAGGGGGCCUGGAAGUUUGGACUGGGCAGAGCUCAACACAGCGUGGCAAAGUGGCUGUGGCUAGGCUGCCUCUCUGGAUUCCUCGUCACUCAGCAGGGCAUCUCUGAGAGAAAUGCC | 0.54
UACGUAGGUGGUUUUCCCCUGAUAGUGCAAAGGGGGCCUGGAAGUUUGGACUGGGCAGAGCUCAACACAGCGCGGCAAAGUGGCUGUGGCUAGACUGCCUCUCUGGAUUCCUCGUCACUCAGCAGGGCAUCUCUGAGAGAAAUGCC | 1.63
UACGUAGGUGGUUUUCCCCUGAUAGUGCAAAGGGGGCCUGGAAGUUUGGACUGGGCAGAGCUCAACACAGCAUGGCAAAGUGGCUGUGGCUAGACUGCCUCUCUGGAUUCCUCGUCACUCAGCAGGGCAUCUCUGAGAGAAAUGCC | 1.13
UACGUAGGUGGUUUUCCCCUGAUAGUGCAAAGGGGGCCUGGAAGUUUGGACUGGGCAGAGCUCAACACAGCGUGGCAAAGUGGCUGUGGCUAGACUGCCUCUCUGGAUUCCUCGUCACUCAGCCGGGCAUCUCUGAGAGAAAUGCC | 1.52
UACGUAGGUGGUUUUCCCCUGAUAGUGCAAAGGGGGCCUGGAAGUUUGGACUGGGCAGAGCUCAACACAGCGUGGCAAAGUGGCUGUGGCUAGACUGCCUCUCUGGAUUCCUCGUCACUCAGCAGGGCAUCUCUGAGAGAGAUGCC | 1.15
UACGUAGGUGGUUUUCCCCUGAUAGUGCAAAGGGGGCCUGGAAGUUUGGACUGGGCAGAGCUCAACACAGCGUGGCAAAGUGGCUGUGGCUAGACUGCCUCUCUGGAUUCCUCGUCACUCAGCAGGGCAUCUCUGAGAGAAAAGCC | 0.84
UACGUAGGUGGUUUUCCCCUGAUAGUGCAAAGGGGGCCUGGAAGGUUGGACUGGGCAGAGCUCAACACAGCGUGGCAAAGUGGCUGUGGCUAGACUGCCUCUCUGGAUUCCUCGUCACUCAGCAGGGCAUCUCUGAGAGAAAUGCC | 0.38
UACGUAGGUGGUUUUCCCCUGAUAGUGCAAAGGGGGCCUGGAAGCUUGGACUGGGCAGAGCUCAACACAGCGUGGCAAAGUGGCUGUGGCUAGACUGCCUCUCUGGAUUCCUCGUCACUCAGCAGGGCAUCUCUGAGAGAAAUGCC | 0.96
UACGUAGGUGGUUUUCCCCUGAUAGUGCAAAGGGGGCCUGGAAGUUUGGACUGGGCAGAGCUCAACACAGCGUGGCAAAGUGGCUGUGGCUAGACUGCCUCUCUGGAUUCCCCGUCACUCAGCAGGGCAUCUCUGAGAGAAAUGCC | 0.43
UACGUAGGUGGUUUUCCCCUGAUAGUGCAAAGGGGGCCUGGAAGUUUGGACUGGGCAGAGCUCAACACAGCGUGGCAAAGUGGCUGUGGCUAGACUGCCUCUCUGGAUUCCUCGUCACUCAGCAGGGCAUCUCUGAGAGAAAUGCC | 1.23
UACGUAGGUGGUUUUCCCCUGAUAGUGCAAAGGGGGCCUGGAAGUUUGGAAUGGGCAGAGCUCAACACAGCGUGGCAAAGUGGCUGUGGCUAGACUGCCUCUCUGGAUUCCUCGUCACUCAGCAGGGCAUCUCUGAGAGAAAUGCC | 1.65
UACGUAGGUGGUUUUCCCCUGAUAGUGCAAAGGGGGCCUGGAAGUUAGGACUGGGCAGAGCUCAACACAGCGUGGCAAAGUGGCUGUGGCUAGACUGCCUCUCUGGAUUCCUCGUCACUCAGCAGGGCAUCUCUGAGAGAAAUGCC | 1.6
UACGUAGGUGGUUUUCCCCUGAUAGUGCAAAGGGGGCCUGGAAGUUUGGACUGGGCAGAGCUCAACACAGCGUGGCAAAGUGGCUGUGGCUAGACUGCCUCUCUGGAUUCCUCGUCACUCAGCAGGGCAUCUCCGAGAGAAAUGCC | 0.87
UACGUAGGUGGUUUUCCCCUGAUAGUGCAAAGGGGGCCUGGAAAUUUGGACUGGGCAGAGCUCAACACAGCGUGGCAAAGUGGCUGUGGCUAGACUGCCUCUCUGGAUUCCUCGUCACUCAGCAGGGCAUCUCUGAGAGAAAUGCC | 0.61
UACGUAGGUGGUUUUCCCCUGAUAGUGCAAAGGGGGCCUGGAAGUUUGGACUGGGCAGAGCUCAACACAGCGUGGCAAAGUGGCUGUGGCUAGACUGCCUCUCUGGAUUCCUCGUCUCUCAGCAGGGCAUCUCUGAGAGAAAUGCC | 1.06
UACGUAGGUGGUUUUCCCCUGAUAGUGCAAAGGGGGCCUGGAAGUUUGGACUGGGCAGAGCUCAACACAGCGUGGCAAAGUGGCUGUGGCUAGACUGCCUCUCUGGAUUUCUCGUCACUCAGCAGGGCAUCUCUGAGAGAAAUGCC | 1.07
UACGUAGGUGGUUUUCCCCUGAUAGUGCAAAGGGGGCCUGGAAGUUUGGACUGGGCAGAGCUCAACACAGCGUGGCAAAGUGGCUGUGGCUAGACUGCCUCUCUGGAUUCCUCGUCACUCAGCAGGGCAUCCCUGAGAGAAAUGCC | 0.59
UACGUAGGUGGUUUUCCCCUGAUAGUGCAAAGGGGGCCUGGAAGUUUGGACUGGGCAGAGCUCAACACAGCGUGGCAAAGUGGCUGUGGCUAGACUGCCUCUCUGGAUUCCUCGUCACUCAGCAGGGCAUCACUGAGAGAAAUGCC | 1.09
UACGUAGGUGGUUUUCCCCUGAUAGUGCAAAGGGGGCCUGGAAGUUUGGACUGGGCAGAGCUCAACACAGCGUGGCAAAGUGGCUGUGUCUAGACUGCCUCUCUGGAUUCCUCGUCACUCAGCAGGGCAUCUCUGAGAGAAAUGCC | 0.04

Variant | self-cleavage
UACGUAGGUGGUUUUCCCCUGAUAGUGCAAAGGGGGCCUGGAAGUUUGGACUGGGCAGAGCUCAACACAGCGUGGCAAAGAGGCUGUGGCUAGACUGCCUCUCUGGAUUCCUCGUCACUCAGCAGGGCAUCUCUGAGAGAAAUGCC | 1.96
UACGUAGGUGGUUUUCCCCUGAUAGUGCAAAGGGGGCCUGGAAGUUUGGACUGGGCAGAGCUCAACACAGCGUGGCAAAGUGGCUGUGGCUAGACUGCCUCCCUGGAUUCCUCGUCACUCAGCAGGGCAUCUCUGAGAGAAAUGCC | 1.2
UACGUAGGUGGUUUUCCCCUGAUAGUGUUAAGGGGGCCUGGAAGUUUGGACUGGGCAGAGCUCAACACAGCGUGGCAAAGUGGCUGUGGCUAGACUGCCUCUCUGGAUUCCUCGUCACUCAGCAGGGCAUCUCUGAGAGAAAGGCC | 1.02
UACGUAGGUGGUUUUCCCCUGAUAGUGCAAAGGGGGCCUGGAAGUUUGGACUGGGCAGAGCUCGACACAGCGUGGCAAAGUGGCUGUGGCUAGACUGCCUCUCUGGAUUCCUCGUCACUCAGCAGGGCAUCUCUGAGAGAAAUGCC | 0.48
UACGUAGGUGGUUUUCCCCUGAUAGUGCAAAGGGGGCCUGGAAGUUUGGACUGAGCAGAGCUCAACACAGCGUGGCAAAGUGGCUGUGGCUAGACUGCCUCUCUGGAUUCCUCGUCACUCAGCAGGGCAUCUCUGAGAGAAAUGCC | 0.75
UACGUAGGUGGUUUUCCCCUGAUAGUGCAAAGGGGGCCUGGAAGUUUGGACUGGGCAGAGCUCAACACAGCGUGGCAAAGUGGCUGUGGCUAGACUGCCUCUCUGGAUUCCUCGUCACUCGGCAGGGCAUCUCUGAGAGAAAUGCC | 1.31
UACGUAGGUGGUUUUCCCCUGAUAGUGCAAAGGGGGCCUGGAAGUUUGGACUGGGCAGAGCUCAACACAGCGUGGCAAAGUGGCUGUGGCUAGACUGCCUCUCUGGAUUCCUCGUCACGCAGCAGGGCAUCUCUGAGAGAAAUGCC | 1.31
UACGUAGGUGGUUUUCCCCUGAUAGUGCAAAGGGGGCCUGGAAGUUUGGACUGGGCAGAGCUCAACACAGCGUGGCAAAGUGGCUGUGGCUAGACUGCCUCUCUGGAUUCCUCGUCACCCAGCAGGGCAUCUCUGAGAGAAAUGCC | 0.97
UACGUAGGUGGUUUUCCCCUGAUAGUGCAAAGGGGGCCUGGAAGUUUGGACUGGGCAGAGCUCAACACAGCGUGGCAAAGUGGCUGUGGCCAGACUGCCUCUCUGGAUUCCUCGUCACUCAGCAGGGCAUCUCUGAGAGAAAUGCC | 0.4
UACGUAGGUGGUUUUCCCCUGAUAGUGCAAAGGGGGCCUGGAAGUUUGGACCGGGCAGAGCUCAACACAGCGUGGCAAAGUGGCUGUGGCUAGACUGCCUCUCUGGAUUCCUCGUCACUCAGCAGGGCAUCUCUGAGAGAAAUGCC | 1.3
UACGUAGGUGGUUUUCCCCUGAUAGUGCAAAGGGGGCCUGGAAGUUUGGACUGGGCAGAGCUCAACACAGCGUGGCAAAGUGGCUGUGGCUAGACUGCCUCUCUGGAUUCCUCGUCACUCAGCAGGGCAUCUCUGAGAGAAGUGCC | 1.04
UACGUAGGUGGUUUUCCCCUGAUAGUGCAAAGGGGGCCUGGAAGUUUGGACUGGGCAGAGCUCAACACAGCGUGGCAAAGUGGCUGUGGCUAGACUGCCUCUCUGGAUUCCUCGUCACUCAGCAGGGCAUCUCUGAGAGAACUGCC | 0.56
UACGUAGGUGGUUUUCCCCUGAUAGUGCAAAGGGGGCCUGGAAGUUUGGACUGGGCAGAGCUCAACACGGCGUGGCAAAGUGGCUGUGGCUAGACUGCCUCUCUGGAUUCCUCGUCACUCAGCAGGGCAUCUCUGAGAGAAAUGCC | 0.42
UACGUAGGUGGUUUUCCCCUGAUAGUGCAAAGGGGGCCUGGAAGUUUGGACUGGGCAGAGCUCAACACUGCGUGGCAAAGUGGCUGUGGCUAGACUGCCUCUCUGGAUUCCUCGUCACUCAGCAGGGCAUCUCUGAGAGAAAUGCC | 0.07
UACGUAGGUGGUUUUCCCCUGAUAGUGCAAAGGGGGCCUGGAAGUUUGGACUGGGCAGAGCUCAACACAGCGUGGCAAAGUGGCUGUGGCUAGACUGCCUUUCUGGAUUCCUCGUCACUCAGCAGGGCAUCUCUGAGAGAAAUGCC | 1.71
UACGUAGGUGGUUUUCCCCUGAUAGUGCAAAGGGGGCCUGGAAGUUUGGACUGGGCAGAGCUCAACACAGCGUGGCAAAGUGGCUGUGGCUAGACUGCCUCUCUGGAUUCCUCGUCACUCAGCAGGGCACCUCUGAGAGAAAUGCC | 0.81
UACGUAGGUGGUUUUCCCCUGAUAGUGCAAAGGGGGCCUGGAAGUUUGGACUGGGCAGAGCUCAACACAGCGUGGCUAAGUGGCUGUGGCUAGACUGCCUCUCUGGAUUCCUCGUCACUCAGCAGGGCAUCUCUGAGAGAAAUGCC | 1.79
UACGUAGGUGGUUUUCCCCUGAUAGUGCAAAGGGGGCCUGGAAGUUUGGACUGGGCAGAGCCCAACACAGCGUGGCAAAGUGGCUGUGGCUAGACUGCCUCUCUGGAUUCCUCGUCACUCAGCAGGGCAUCUCUGAGAGAAAUGCC | 0
UACGUAGGUGGUUUUCCCCUGAUAGUGCAAAGGGGGCCUGGAAGUUUAGACUGGGCAGAGCUCAACACAGCGUGGCAAAGUGGCUGUGGCUAGACUGCCUCUCUGGAUUCCUCGUCACUCAGCAGGGCAUCUCUGAGAGAAAUGCC | 1.01
